Data from patent US20240052033A1 (Molecular Partners, published 2024).
Blank lines part the entries; values can stand above or below the binder they belong to.

Experiments:
[1] = molecular target: T1, human CD3 on primary human pan-T cells (human, UniProt P07766 23-207; P09693 23-182; P04234 22-171; P20963 22-164); experiment: Mirrorball laser scanning imaging cytometry on primary human pan-T cells, 600 µM HSA, anti-penta-His Alexa Fluor 488 detection
T1 construct: whole, on cells; Native CD3 complex (pairs εγ, εδ, ζζ) on T cells isolated from human PBMCs; it is associated with the T cell receptor on the cells; also called CD3 on Pan-T cells; CD3 on T cells

[2] = molecular target: T1, human CD3 on primary human pan-T cells; experiment: Mirrorball laser scanning imaging cytometry on primary human pan-T cells with 600 µM HSA; detection with anti-penta-His Alexa Fluor 488; Median (FL-2 Mean Intensity) [A]
[3] = molecular target: biotinylated human scCD3εγ (scCD3εγ_Avi-Bio): single-chain human CD3ε/CD3γ extracellular domains joined by a 26 amino acid linker, with a C-terminal Avi-tag (human); experiment: SPR (ProteOn), biotinylated scCD3εγ on NLC chip, DARPin as analyte 4-64 nM, PBS with 0.005% Tween 20; n = 6
[4] = molecular target: biotinylated human scCD3εγ (scCD3εγ_Avi-Bio): single-chain human CD3ε/CD3γ extracellular domains joined by a 26 amino acid linker, with a C-terminal Avi-tag (human); experiment: SPR (ProteOn), biotinylated scCD3εγ on NLC chip, DARPin as analyte 4-64 nM, PBS with 0.005% Tween 20; n = 4
[5] = molecular target: biotinylated human scCD3εγ (scCD3εγ_Avi-Bio): single-chain human CD3ε/CD3γ extracellular domains joined by a 26 amino acid linker, with a C-terminal Avi-tag (human); experiment: SPR (ProteOn), biotinylated scCD3εγ on NLC chip, DARPin as analyte 4-64 nM, PBS with 0.005% Tween 20; n = 2
[6] = molecular target: T1, human CD3 on primary human pan-T cells; experiment: Mirrorball laser scanning imaging cytometry on primary human pan-T cells with 600 µM HSA; detection with anti-penta-His Alexa Fluor 488; Median (FL-2 Mean Intensity) [B]
Description: The determination of CD3 binding was performed with primary human T cells using Mirrorball laser scanning imaging cytometry. Therefore, primary T cells were isolated from human peripheral blood mononuclear cells (PBMCs) using a pan-T cell purification kit (Miltenyi Biotec). […] To generate the tri-specific TCE proteins, DARPin® protein #1, DARPin® protein #2, DARPin® protein #3 and DARPin® protein #4, respectively, was subcloned and expressed as described above into a derivative of the pQE30 (Qiagen) expression vector, encoding an N-terminal His-tag, followed by two different TAA-specific ankyrin repeat domains (in the order TAA2- and TAA3-specific, respectively), and then followed by one of the CD3-specific ankyrin repeat domains of the invention. […] After washing, CD3 binding was detected by 1:100-diluted anti-penta-His Alexa Fluor 488 antibody (Qiagen). […] Median of mean fluorescence intensities of Alexa Fluor 488 binding on far-red counterstained cells were measured by Mirrorball using Cellista software (SPT Labtech) and data was plotted using GraphPad Prism 8.

[7] = molecular target: T2, biotinylated human scCD3εγ (scCD3εγ_Avi-Bio): single-chain human CD3ε/CD3γ extracellular domains joined by a … (human, biotinylated in vitro with BirA at the C-terminal Avi-tag); experiment: ribosome display selection; crude extract HTRF on recombinant human CD3 target
T2 construct: monomeric; also called recombinant human CD3 target; human CD3 (SPR)
T2 chain: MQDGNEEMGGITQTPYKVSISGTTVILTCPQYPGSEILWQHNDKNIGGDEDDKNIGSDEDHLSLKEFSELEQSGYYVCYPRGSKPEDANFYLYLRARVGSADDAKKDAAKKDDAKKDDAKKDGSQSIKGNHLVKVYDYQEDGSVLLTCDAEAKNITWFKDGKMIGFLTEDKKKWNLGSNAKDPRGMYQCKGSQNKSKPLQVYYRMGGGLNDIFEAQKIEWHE
Source text: Using ribosome display (Hanes, J. and Plückthun, A., PNAS 94, 4937-42, 1997), many ankyrin repeat proteins with binding specificity for human scCD3 were selected from DARPin® libraries similar as described by Binz et al. 2004 (loc. cit.). […] For example, the ankyrin repeat domain of SEQ ID NO: 1 constitutes an amino acid sequence of a selected binding protein comprising an ankyrin repeat domain with binding specificity for scCD3. Individual ankyrin repeat modules from such ankyrin repeat domains with binding specificity to scCD3 are provided, e.g., in SEQ ID NO: 5 to 9.

T1 sequence (P07766 23-207, chain 1 of 4): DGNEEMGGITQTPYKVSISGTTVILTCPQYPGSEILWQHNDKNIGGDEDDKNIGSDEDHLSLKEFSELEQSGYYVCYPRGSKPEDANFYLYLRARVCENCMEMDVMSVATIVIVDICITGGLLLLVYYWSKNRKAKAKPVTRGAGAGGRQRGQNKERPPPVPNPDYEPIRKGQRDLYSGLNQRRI
T1 sequence (P09693 23-182, chain 2 of 4): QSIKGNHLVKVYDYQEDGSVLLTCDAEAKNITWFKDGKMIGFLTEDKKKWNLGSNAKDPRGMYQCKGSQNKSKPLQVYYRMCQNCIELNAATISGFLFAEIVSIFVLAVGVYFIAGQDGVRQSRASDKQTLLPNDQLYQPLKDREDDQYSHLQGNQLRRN
T1 sequence (P04234 22-171, chain 3 of 4): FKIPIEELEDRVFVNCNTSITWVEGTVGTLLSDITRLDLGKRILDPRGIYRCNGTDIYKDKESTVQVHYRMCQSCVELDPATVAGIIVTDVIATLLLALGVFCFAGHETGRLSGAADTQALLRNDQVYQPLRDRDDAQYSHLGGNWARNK
T1 sequence (P20963 22-164, chain 4 of 4): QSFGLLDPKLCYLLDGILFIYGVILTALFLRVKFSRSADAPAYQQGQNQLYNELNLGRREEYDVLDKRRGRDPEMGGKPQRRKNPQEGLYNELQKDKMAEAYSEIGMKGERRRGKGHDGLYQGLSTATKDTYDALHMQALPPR

- EC50 [1]: 5 to 15 nM
- EC50 (read off the curve) [2]: 6 nM
- Kd [3]: 6 nM
- koff [3]: 0.00041 s⁻¹
- kon [3]: 82000 M⁻¹ s⁻¹
B1: DARPin® protein #4 with TAA2/TAA3 domains (trispecific format: His-tag, TAA2-specific domain, TAA3-specific domain, CD3-specific domain) (designed binder, part only; not given: CD123 and CD33 DARPin domains, not shown: small tags and cut ends)
chain, part: MRGSHHHHHHGSGSPTPTPTTPTPTPTTPTPTPTGSPTPTPTTPTPTPTTPTPTPTDLGQKLLEAAWAGQLDEVRILLKAGADVNAKNSRGWTPLHTAAQTGHLEIFEVLLKAGADVNAKTNKRVTPLHLAAALGHLEIVEVLLKAGADVNARDTWGTTPADLAAKYGHRDIAEVLQKAA

- EC50 [1]: 50 to 100 nM
- Kd [4]: 15 nM
- koff [4]: 0.0013 s⁻¹
- kon [4]: 89000 M⁻¹ s⁻¹
B2: DARPin® protein #3 with TAA2/TAA3 domains (trispecific format: His-tag, TAA2-specific domain, TAA3-specific domain, CD3-specific domain) (designed binder, part only; not given: CD123 and CD33 DARPin domains, not shown: small tags and cut ends)
chain, part: MRGSHHHHHHGSGSPTPTPTTPTPTPTTPTPTPTGSPTPTPTTPTPTPTTPTPTPTDLGQKLLEAAWAGQDDEVRELLKAGADVNAKNSRGWTPLHTAAQTGHLEIFEVLLKAGADVNAKNDKRVTPLHLAAALGHLEIVEVLLKAGADVNARDSWGTTPADLAAKYGHQDIAEVLQKAA

- EC50 [1]: 250 to 400 nM
- Kd [5]: 35 nM
- koff [5]: 0.0015 s⁻¹
- kon [5]: 49000 M⁻¹ s⁻¹
B3: DARPin® protein #2 with TAA2/TAA3 domains (trispecific format: His-tag, TAA2-specific domain, TAA3-specific domain, CD3-specific domain) (designed binder, part only; not given: CD123 and CD33 DARPin domains, not shown: small tags and cut ends)
chain, part: MRGSHHHHHHGSGSPTPTPTTPTPTPTTPTPTPTGSPTPTPTTPTPTPTTPTPTPTDLGQKLLEAAWAGQDDEVRELLKAGADVNAKNSRGWTPLHTAAQTGHLEIFEVLLKAGADVNAKDDKGVTPLHLAAALGHLEIVEVLLKAGADVNAQDSWGTTPADLAAKYGHEDIAEVLQKAA

- binding result [6]: no binding (tested: about 3000 nM)
B4: DARPin® protein A (with HSA) (designed binder)
single chain: DLGQKLLEAAWAGQDDEVRELLKAGADVNAKDSQGWTPLHTAAQTGHLEIFEVLLKAGADVNAKDDKGVTPLHLAAALGHLEIVEVLLKAGADVNAQDSWGTTPADLAAKYGHEDIAEVLQKAA
notes: The MOLECULES list holds the half-life extended forms of B, C and D only; also called DARPin® protein A with half-life extension

- binding result [7]: binds
B5: SEQ ID NO 1 (designed binder)
chain: DLGQKLLEAAWAGQDDEVRELLKAGADVNAKDSQGWTPLHTAAQTGHLEIFEVLLKAGADVNAKDDKGVTPLHLAAALGHLEIVEVLLKAGADVNAQDSWGTTPADLAAKYGHEDIAEVLQKAA
notes: also called CD3-specific domain of DARPin® protein #1

- EC50 (read off the curve) [6]: ~20 nM
B6: DARPin® protein D with half-life extension (tetraspecific format: His-tag, HSA-specific domain, TAA2-specific domain, TAA3-specific domain, DARPin® protein #4) (designed binder, not shown: large carriers; small tags and cut ends)
chain: DLGQKLLEAAWAGQLDEVRILLKAGADVNAKNSRGWTPLHTAAQTGHLEIFEVLLKAGADVNAKTNKRVTPLHLAAALGHLEIVEVLLKAGADVNARDTWGTTPADLAAKYGHRDIAEVLQKAA
notes: also called half-life extended DARPin® protein D; DARPin® protein #H
